Assay results taken from CN106589116A (INST MICROBIOLOGY CAS, dated 2017).

B1: Z6 (antibody, V domains shown)
VH: QVQLQESGPGLVKPSETLSLICTVSGGSISTRDYYWGWIRQTPGKGLEWIGSIYYSGGTYYSPSLKSRVTISVDTSKNQFSLKLRSVTAADTAVYYCARQWGNYFDHWGQGSLVTVSS
VL: DIVLTQSPSFLSASVGDRVTITCRASQGIDTYLAWYQQKPGKAPKLLIYGASTLQSGVPSRFSGSGSGTEFTLTISSLQPEDFATYYCQQLNNYHFTFGPGTKVDIKR
notes: also called 克隆Z6; 人源单克隆抗体Z6
B2: Z5 (antibody, V domains shown)
VH: QVQLQESGHRLVKPSETLSLTCTVSGGSISSDPYLWGWIRQPPGKGLEWIGSIYHSGSAYYNPSLKSRVTLSVDTSRNQFSLKVNSVTATDTAVYYCVEVAPPEKWGRGILVTVSS
VL: QSALTQPPSASGSPGQSVTISCTGTSSDVGGYNYVSWYQQHPGKAPKLMIYAVNKRPSGVPDRFSGSKSGNTASLTVSRLQDDDEADYYCSSYGGSNNILFGGGTKLTVLG
notes: also called 克隆Z5; 人源单克隆抗体Z5
B3: Z7 (antibody, V domains shown)
V domain 1: QVQLQESGPGLVKPSETLSLTCTVFGGSVNNPTNYWGWIRQSPGKGLEWIGSVYYTGINYYNPSLESRVTIAVVTSKNQFSLKLTSVTATDTAVYYCARHPRPETGYDFDYWGQGTLVTVSS
V domain 2: QSVLTQPPSVSAAPGQKVTISCSGSSSNIGNNYVSWYQQLPGTAPKLLLYDNNKRPSGTPDRFSGSKSGTSATLGIAGLQTGDEAVYHCATWDSSLSAEVFGGGTQVTVLG
notes: also called 克隆Z7; 人源单克隆抗体Z7

What follows are binders tested against ZIKV-E蛋白 (寨卡病毒E蛋白胞外区, C端6*His, 大肠杆菌表达复性) (Zika virus, UniProt A0A024B7W1 291-699) (assay: SPR, Biacore T100, antibody captured by anti-human IgG on CM5, ZIKV-E as analyte).
Chain of ZIKV-E蛋白 (寨卡病毒E蛋白胞外区, C端6*His, 大肠杆菌表达复性) (A0A024B7W1 291-699, tags left off): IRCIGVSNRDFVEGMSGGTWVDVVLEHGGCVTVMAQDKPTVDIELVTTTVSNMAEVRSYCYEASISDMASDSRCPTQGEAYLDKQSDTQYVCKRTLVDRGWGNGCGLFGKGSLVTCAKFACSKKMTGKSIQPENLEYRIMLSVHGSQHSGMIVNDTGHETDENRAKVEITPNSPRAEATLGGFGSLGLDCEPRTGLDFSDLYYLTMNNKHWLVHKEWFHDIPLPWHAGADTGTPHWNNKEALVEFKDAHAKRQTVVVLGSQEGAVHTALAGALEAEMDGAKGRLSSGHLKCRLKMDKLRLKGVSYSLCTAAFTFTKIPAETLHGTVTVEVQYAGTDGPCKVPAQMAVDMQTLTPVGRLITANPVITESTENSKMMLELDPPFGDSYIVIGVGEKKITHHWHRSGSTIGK

Row | Binder | Kd [nM]
1 | B1 | 0.0447
2 | B2 | 0.0399
3 | B3 | 0.2
